The supplement of paper PMC10567573
± gives the standard deviation.

Experiment: protein stability index of a GFP-peptide fusion (GPS, HEK-293T) (PSI 1-6); higher = more stable
[1] = treatment: DMSO, c terminus: a fixed tail appended
[2] = treatment: MLN4924 1 uM, 8 h, c terminus: a fixed tail appended
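Also: 24-mer peptide tiles fused after GFP, lentivirally expressed, FACS-sorted into six equal bins by GFP/DsRed ratio, decoded by Illumina sequencing, PSI is the read-weighted mean bin number.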

Sequence | protein stability index [1] | protein stability index [2] | protein stability index (treatment: DMSO, c terminus: native) | protein stability index (treatment: MLN4924 1 uM, 8 h, c terminus: native)
YLCFLLAVLLQLYVATEAILIALV [SLC22A15] | 2.64 ± 0.38 | 2.51 ± 0.63 |  | 
QLQKILSIPQSSLEPLKAIIQYRL [ACSBG2] | 2.78 ± 0.86 | 2.36 ± 0.25 |  | 
DKITGQSLGYGFVNYSDPNDADKA [ELAVL3] | 4.81 ± 0.24 | 4.82 ± 0.15 |  | 
WRMLTYKALNTFIDDLFAFVIKMP [CLPTM1] | 2.95 ± 0.4 | 2.96 ± 0.7 |  | 
AKREETKAMESQRAYRFVQGKDWG [SPOPL] | 3.09 ± 0.61 | 3.59 ± 0.37 |  | 
HQLLGLFPSTSYNARLQAMWGQSL [TNXB] | 2.11 ± 0.35 | 2.08 ± 0.23 |  | 
TTKGTSEMSEKRGPTSSNPRKRHR [MLH1] | 5.14 ± 0.41 | 5.04 ± 0.079 |  | 
KMLLMYCAKMEKDGYGMTPLLSAS [FEM1C] | 2.56 ± 0.67 | 2.11 ± 0.46 |  | 
PHAMTIQELVDYVNARQKQGIYEE [PTPN9] | 3.23 ± 0.21 | 3.25 ± 0.41 |  | 
RREKAVHRLRVQQAALRAARLRHQ [NOP53] | 3.6 ± 0.41 | 3.71 ± 0.34 |  | 
DVEAWFNTQTEELNQQVVSSSEQL [KRT36] | 4.65 ± 0.22 | 4.73 ± 0.15 |  | 
WTQATGLGCALLAAHAVVLCALPV [SOAT2] | 3.18 ± 0.35 | 2.97 ± 0.095 |  | 
IATLRVALPSVMRFCCCVAVIYLG [MCOLN1] | 3.29 ± 0.55 | 3.15 ± 0.21 |  | 
MFPVAPKPQDSSQPSDRLMTEKQQ [CEP70] | 5.28 ± 0.2 | 5.24 ± 0.11 |  | 
FYTAITKKIFKSHLKSSRNSTSVK [P2RY14] | 2.18 ± 0.33 | 2.32 ± 0.55 |  | 
AKFDFLTRKHHCRRCGKCFCDRCC [ZFYVE21] | 3.08 ± 0.29 | 3.45 ± 0.44 |  | 
LVTGGELFEDIVAREYYSEADASH [CAMK2A] | 3.92 ± 0.37 | 3.91 ± 0.17 |  | 
ETRRRMEMAFNTRCKEENTIILQQ [NLN] | 2.66 ± 0.36 | 2.98 ± 0.23 |  | 
ERSSFYSCAGGRLFQQSCPTGLVF [CHIT1] | 1.99 ± 0.15 | 2.13 ± 0.18 |  | 
AGLLIIVLAIIAREGDCAPEEKIW [MAGEA3] | 3.25 ± 0.46 | 2.8 ± 0.34 |  | 
HDQCKCENLIMFQNLANEEVRKLT [MATN2] | 3.13 ± 0.25 | 3.58 ± 0.28 |  | 
YKNIKRPPGDIMFLLVQRFGELMR [USP39] | 2.29 ± 0.16 | 2.14 ± 0.17 |  | 
RPCVPPSCHGYTLPGACNIPANVS [KRT33B] | 2.79 ± 0.24 | 2.74 ± 0.17 |  | 

Sequence | protein stability index [1] | protein stability index [2] | protein stability index (treatment: DMSO, c terminus: native) | protein stability index (treatment: MLN4924 1 uM, 8 h, c terminus: native)
CFRFRQSSGRRVSLHCLLDQFDKD [DENND6A] | 2.5 ± 0.73 | 2.41 ± 0.53 |  | 
GLAANGALQRLDLRNNQISHKGAE [LRRC45] | 4.23 ± 0.4 | 4.57 ± 0.18 |  | 
GRTPLIKLSPKKTWEGFIGGFFAT [CDS2] | 1.91 ± 0.24 | 2.09 ± 0.55 |  | 
TIAAIDGLALGGGLELALACDIRV [AUH] | 2.39 ± 1.2 | 2.33 ± 0.59 |  | 
NCSGPAPAAKPDPDGGRADEWACE [P3H4] | 5.36 ± 0.17 | 5.44 ± 0.16 |  | 
SLGKTNVKDDELDAMLKEASGPIN [MYL5] | 5.14 ± 0.26 | 5.35 ± 0.16 |  | 
ESLREELICLKKNHEEEVNTLRSQ [KRT34] | 4.91 ± 0.23 | 5.04 ± 0.23 |  | 
ETEKEEEEEDREEEDENGLPRRRG [NEUROD6] | 5.815 ± 0.053 | 5.62 ± 0.39 |  | 
LEAAEVILEHAHRGEQTTSQVSWE [FCHSD1] | 3.63 ± 0.58 | 4.25 ± 0.79 |  | 
CRCVASPPPDAAATAASSSASSPA [SLC25A25] | 4.52 ± 0.22 | 4.35 ± 0.29 |  | 
LALYTPVGAAGSARQELLGDRPRW [ANKRD9] | 3.28 ± 0.27 | 2.96 ± 0.21 |  | 
RSFWELIGEAAKSVKLERPVRGH [S100A14] |  |  | 2.82 ± 0.81 | 2.65 ± 0.62
IFFMAAFAFSNGYLASLCMCFGPK [SLC29A1] | 2.42 ± 0.38 | 2.52 ± 0.34 |  | 
SFTQEQVADIDGQYAMTRAQRVRA [CTNNB1] | 4.62 ± 0.19 | 4.62 ± 0.14 |  | 
FGMAKIDNLLQEMLLGGSPSDAPH [HNF4A] | 2.8 ± 0.25 | 2.76 ± 0.28 |  | 
VSASGKEMDWAQMACHRCLVYLGD [SMG5] | 2.1 ± 0.36 | 2.21 ± 0.52 |  | 
DVNEQVMQVLGPEDLQSIIYKLEE [CEP70] | 3.7 ± 0.21 | 3.7 ± 0.24 |  | 
PSCLACNRQCLCSAESMVEYGTCM [SPRY1] | 2.84 ± 0.58 | 2.84 ± 0.48 |  | 
TNALIGGPMPMSMPNVMTGTMGMA [CLINT1] | 3 ± 0.16 | 3.03 ± 0.18 |  | 
YPHTRIQSLVSILRTTVHHAFPVV [CLCN6] | 2.42 ± 0.57 | 2.14 ± 0.15 |  | 
VQLIQDTRIHILPSMNPDGYEVAA [CPN1] | 2.55 ± 0.23 | 2.57 ± 0.33 |  | 
VVTAEAVAVLKGEQEKEAQHKDQT [MAP2] | 5.49 ± 0.12 | 5.28 ± 0.21 |  | 
QCDHCERCFYTRKDVRRHLVVHTG [PLAGL1] | 2.91 ± 0.074 | 3.19 ± 0.27 |  | 

Sequence | protein stability index [1] | protein stability index [2] | protein stability index (treatment: DMSO, c terminus: native) | protein stability index (treatment: MLN4924 1 uM, 8 h, c terminus: native)
VDSPKNFNIAGTVVKYRRPMDVYE [ADAMTSL2] | 3.44 ± 0.36 | 3.49 ± 0.54 |  | 
NDFCSFYNILKTCRGHTLERSVFS [CARM1] | 2.78 ± 0.6 | 2.4 ± 0.3 |  | 
FMRTSVKISYIGLMTQSSLETHHY [TMEM106C] | 3.07 ± 0.75 | 2.63 ± 0.38 |  | 
LHKIYLCQSGYFSSMFSGSWKESS [GMCL1] | 2.26 ± 0.82 | 2.18 ± 0.37 |  | 
AHKCLECGKCFSQNTHLTRHQRTH [ZNF263] | 4.92 ± 0.14 | 5 ± 0.3 |  | 
YILELDDGNGGQFREVYVGKETMC [TRIM9] | 2.28 ± 0.11 | 2.29 ± 0.16 |  | 
KLRHLDISRDRLSSYYKFKLTREV [ZER1] | 2.35 ± 0.13 | 2.39 ± 0.31 |  | 
NKPREHIIDCGDIVWSLAFGSSVP [WSB1] | 2.17 ± 0.38 | 2.07 ± 0.2 |  | 
FSGTPPPPVLSFRLVHTTAIEHFQ [FCHO1] | 2.32 ± 0.24 | 2.28 ± 0.19 |  | 
ETLKHIKATEPTETVQTWIELLTG [GOLPH3L] | 2.59 ± 0.2 | 2.86 ± 0.22 |  | 
SGRGTGRGGGGGGGGGAPRGRYGP [SRSF1] | 4.79 ± 0.24 | 4.83 ± 0.15 |  | 
EGGTAVTGGQTVVNPWIIIGGVAT [SEPHS2] | 2.68 ± 0.29 | 2.77 ± 0.43 |  | 
ASQFLASASSSTTCCESTQRSVSD [IRX6] | 5.09 ± 0.22 | 5.09 ± 0.22 |  | 
GLWGTTLTENTAENRELYIKTTLR [PKD2L1] | 3.19 ± 0.15 | 3.2 ± 0.17 |  | 
KQIAGGDVTAKNIWLAESVLDILT [INTS3] | 2.2 ± 0.064 | 2.13 ± 0.26 |  | 
ARDVQKIIGDYFSDQDPRVRTAAI [INTS4] | 3.03 ± 0.29 | 3.15 ± 0.21 |  | 
NLPKFCHECGTKYPVEWAKFCCEC [ZC2HC1A] | 5.275 ± 0.001 | 5.557 ± 0.049 |  | 
DLTSEDQIVLLKSSAIEVIMLRSN [VDR] | 2.28 ± 0.21 | 2.05 ± 0.34 |  | 
SVRRTRSKIGFGILLSKEPDGVWA [SMAD6] | 2.18 ± 0.12 | 2.3 ± 0.12 |  | 
PPPGSLSRTQEPSLGKQKVFIIRK [SOAT2] | 3.51 ± 0.17 | 3.73 ± 0.17 |  | 
NHLNPEVKKSCWTEEEDRIICEAH [MYBL2] | 4.72 ± 0.1 | 4.81 ± 0.2 |  | 
DQFDKDLPVYLKKDPAYFYGYVYF [DENND6A] | 2.46 ± 0.71 | 2.19 ± 0.59 |  | 
EMHFLENAKKLSMYGVDLHHAKDS [EPB41L3] | 3.03 ± 0.67 | 2.8 ± 0.25 |  | 

Sequence | protein stability index [1] | protein stability index [2] | protein stability index (treatment: DMSO, c terminus: native) | protein stability index (treatment: MLN4924 1 uM, 8 h, c terminus: native)
MAMVVSTWRDPQDEVPGSQGSQAS [NR2F2] | 4.05 ± 0.27 | 4.32 ± 0.25 |  | 
KADIGAPSGFKHVSHVGWDPQNGF [WAS] | 3.2 ± 0.37 | 3.33 ± 0.089 |  | 
YLKKNHEEEMNALRGQVGGEINVE [KRT17] | 4.39 ± 0.23 | 4.75 ± 0.12 |  | 
ERHKLKRQDADAWTLYKILDSCKQ [SMG5] | 2.75 ± 0.21 | 2.9 ± 0.36 |  | 
IALFTARLHHPHKSVQHVVLQALF [PTPN9] | 2.59 ± 0.54 | 3.13 ± 0.72 |  | 
YSYMSPNKCSGMRFPLQEENSVTH [KMT5A] | 3.35 ± 0.25 | 3.14 ± 0.1 |  | 
AQRKEERWDMADNEQVLTTEHEKK [YJU2B] | 5.57 ± 0.21 | 5.6 ± 0.12 |  | 
GYSIKVFDFERSGLQHAPEPDAAD [SMAD6] | 4.26 ± 0.37 | 4 ± 0.17 |  | 
DHLTTVLYLQLAICSSLQNLEKTI [C8orf76] | 3.21 ± 0.57 | 3.41 ± 0.35 |  | 
SPLLSQETAGQKPLSVHRPPTSGC [TSPAN10] | 4.4 ± 0.17 | 4.46 ± 0.18 |  | 
KQKTSAALSTMGTLICRKLGGVKK [TPD52L3] | 2.98 ± 0.29 | 2.83 ± 0.34 |  | 
GTLDCISMALTCTFNRWGTLLAVG [RBBP5] | 3.2 ± 0.3 | 3.24 ± 0.59 |  | 
DLDFKHHNYKEMRQLMKVVNEMCP [CPXM2] | 2.93 ± 0.21 | 2.66 ± 0.31 |  | 
LFMKKNHEEEVKGLQAQIASSGLT [KRT18] | 3.81 ± 0.15 | 3.98 ± 0.27 |  | 
FHCLWDDSFPEGPERLHAIKEQLI [HDAC6] | 2.47 ± 0.26 | 2.41 ± 0.33 |  | 
VPTPLTNVQILLPVGEPVTNVRLQ [FCHO1] | 3.35 ± 0.34 | 3.36 ± 0.33 |  | 
DQHRLYKQIKAGAYDFPSPEWDTV [CAMK2A] | 3.29 ± 0.23 | 3.3 ± 0.24 |  | 
ILKSQKERQCALRVFKARIYTNRY [FBXO39] | 2.41 ± 0.35 | 2.46 ± 0.29 |  | 
LGLSKLARIVEIYSRRLQVQERLT [GCH1] | 2.71 ± 0.65 | 2.2 ± 0.41 |  | 
EAEEEELRAELTKVEEEIVTLRQV [TPD52L2] | 4.25 ± 0.26 | 4.63 ± 0.51 |  | 
